Measurements reported in patent US20090253131A1, “HYBRID FUSION REPORTER AND USES THEREOF” (Promega Corporation, priority 2007, published 2009).

Legend:
[1] = Binding of DhaA mutants to carboxytetramethylrhodamine chloroalkane substrate
Method: DhaA.H272 mutants, i.e. H272F/G/A/Q, bound to carboxytetramethylrhodamine-C10H21NO2—Cl.
A control mutant, DhaA.D106Q, single mutants DhaA.D106C, DhaA.D106Y, and DhaA.D106E, as well as double mutants DhaA.D106C:H272F, DhaA.D106E:H272F, DhaA.D106Q:H272F, and DhaA.D106Y:H272F were analyzed for binding to carboxytetramethylrhodamine-C10H21NO2—Cl. Carboxytetramethylrhodamine-C10H21NO2—Cl bound to DhaA.D106C, DhaA.D106C:H272F, DhaA.D106E, and DhaA.H272F. Thus, the bond formed between carboxytetramethylrhodamine-C10H21NO2—Cl and cysteine or glutamate at residue 106 in a mutant DhaA is stable relative to the bond formed between carboxytetramethylrhodamine-C10H21NO2—Cl and DhaA.WT. Other substitutions at position 106 alone or in combination with substitutions at other residues in DhaA may yield similar results. Further, certain substitutions at position 106 alone or in combination with substitutions at other residues in DhaA may result in a mutant DhaA that forms a bond with only certain substrates.

[2] = MagneGST-based labeling assay of DhaA mutants, biotin substrate; type: biochemical
Excerpt: An automated MagneGST™-based assay was used to screen the DhaA mutant protein libraries. […] The hits identified by the initial primary screen were located in the master plates, consolidated, re-grown and reanalyzed using the MagneGST™ assay.
In order to distinguish these recombined protein mutants from the mutants identified in round one of screening (first generation), they are referred to as “second generation” DhaA mutants.

[3] = Fluorescence polarization (FP) labeling kinetics of purified DhaA mutants, TMR substrate; type: biochemical
Excerpt: (§1) Fluorescence polarization (FP) is ideal for the study of small fluorescent ligands binding to proteins. It is unique among methods used to analyze molecular binding because it gives direct nearly instantaneous measure of a substrate bound/free ratio. Therefore, an FP assay was developed as an alternative approach to fluorimage gel analysis of the purified DhaA mutants.
(§2) Based on the sensitivity and truly homogenous nature of this assay, FP was used to characterize the labeling properties of the purified DhaA mutants with the fluorescently coupled substrates. The data from these studies was then used to calculate a second order rate constant for each DhaA mutant-substrate pair.

[4] = FP
Excerpt: as §1, §2

[5] = biological target: T1, rapamycin-mediated FRB/FKBP protein-protein interaction (Homo sapiens, UniProt P42345+P62942); assay: Protein complementation labeling (PCL) in vitro with HT2 fragments, rapamycin-mediated FRB/FKBP; type: biochemical; details: with or without 1 μM rapamycin, 0.1 μM TMR ligand 2 hours
T1 construct: made in house; host or cells: cell-free: RiboMax transcription, Wheat Germ Plus translation
Method: The rapamycin-mediated FRB/FKBP protein-protein interaction and a mutant DhaA were employed in a PCL. FRB and FKBP will only interact when rapamycin is present. Therefore, if PCL is successful, the reconstituted reporter is labeled only when the fusion proteins are incubated together in the presence of rapamycin.
Two pF9 (Kan) vectors were generated which contained either FRB or FKBP ORF plus the linker sequence (GlyGlyGlyGlySer)2 upstream of the SgfI/PmeI sites. A mutant DhaA gene (HT2) at positions corresponding to those useful to prepare Renilla luciferase fragments for PCS (see Example 2 and FIG. 7) with FRB-N-terminal and FKBP-C-terminal fusions. HT2 N- and C-termini halves were amplified using PCR primers and cloned into the SgfI/PmeI sites. PCL was performed in vitro by expressing each clone individually using RiboMax followed by Wheat Germ Plus reactions (HT2). Protein was expressed with or without FluoroTect™. FluoroTect™ labeling ensured that all proteins were expressed in approximately equal amounts (data not shown). Unlabeled proteins were then incubated alone or with the appropriated partner with or without 1 μM rapamycin. Ten μl of these products were then incubated with 0.1 μM of a TMR labeled ligand for the mutant dehalogenase, for 2 hours in the dark. […]

[6] = Kinetic labeling studies of purified DhaA mutants, fluorimage gel analysis; type: biochemical; details: fluorimaged gel, 10 ng protein, refined time-course
Method: Preliminary kinetic labeling studies were performed using several DhaA.H272F derived mutants. […] A more expanded time course analysis was performed on the DhaA.H272F A7 and the two second generation DhaA.H272F mutants A7YM and H11YL. […] The fluorescent bands on gel were quantitated and the relative rates of product formation determined. In order to determine a labeling rate, the concentration of the H11YL was reduced from 50 ng to 10 ng and a more refined time-course was performed. Under these labeling conditions a linear initial rate could be measured. Quantitation of the fluorimaged gel data allowed second order rate constants to be calculated.

CHO cells = assay: Protein complementation labeling (PCL) with HT2 in transiently transfected CHO cells; type: cell-based; details: +/−1 μM rapamycin 2.5 hours, 1.0 μM HaloTag TMR ligand 1 hour
Method: For transient transfections, CHO cells were plated in a 6 well plate and transfected in duplicate using TransIT®-CHO. The next day, cells were incubated +/−1 μM rapamycin for 2.5 hours followed by 1.0 μM HaloTag® TMR ligand for 1 hour. Cells were washed in PBS, trypsinized, pelleted and mechanically lysed in 200 ul PBS with protease inhibitor and RQDNase I. Normalized amounts of proteins were microwaved for 30 seconds on high and run on a denaturing NuPAGE® gel.

T1 sequence (P42345 2012-2144 limits assumed): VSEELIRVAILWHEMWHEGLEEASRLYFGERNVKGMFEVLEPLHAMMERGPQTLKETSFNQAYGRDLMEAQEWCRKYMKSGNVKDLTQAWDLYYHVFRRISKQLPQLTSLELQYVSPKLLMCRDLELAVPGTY
T1 sequence (P62942 whole entry, the tested form may be a part): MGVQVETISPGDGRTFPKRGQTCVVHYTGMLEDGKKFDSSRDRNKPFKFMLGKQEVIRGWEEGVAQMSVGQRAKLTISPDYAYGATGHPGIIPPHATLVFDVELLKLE

Molecule | binding to carboxytetramethylrhodamine-C10H21NO2—Cl [1] | improvement over the parental clones using the biotin-PEG4-14-Cl substrate [2] | further results
DhaA.D106C: DhaA with Asp106 replaced by Cys (protein, UniProt P0A3G2 1-293, looked up, variant D106C) Haloalkane dehalogenase: MSEIGTGFPFDPHYVEVLGERMHYVDVGPRDGTPVLFLHGNPTSSYLWRNIIPHVAPSHRCIAPDLIGMGKSDKPDLDYFFDDHVRYLDAFIEALGLEEVVLVIHCWGSALGFHWAKRNPERVKGIACMEFIRPIPTWDEWPEFARETFQAFRTADVGRELIIDQNAFIEGALPKCVVRPLTEVEMDHYREPFLKPVDREPLWRFPNELPIAGEPANIVALVEAYMNWLHQSPVPKLLFWGTPGVLIPPAEAARLAESLPNCKTVDIGPGLHYLQEDNPDLIGSEIARWLPAL | bound |  | 
DhaA.D106E: DhaA single mutant D106E (protein, UniProt P0A3G2 1-293, looked up, variant D106E) Haloalkane dehalogenase: MSEIGTGFPFDPHYVEVLGERMHYVDVGPRDGTPVLFLHGNPTSSYLWRNIIPHVAPSHRCIAPDLIGMGKSDKPDLDYFFDDHVRYLDAFIEALGLEEVVLVIHEWGSALGFHWAKRNPERVKGIACMEFIRPIPTWDEWPEFARETFQAFRTADVGRELIIDQNAFIEGALPKCVVRPLTEVEMDHYREPFLKPVDREPLWRFPNELPIAGEPANIVALVEAYMNWLHQSPVPKLLFWGTPGVLIPPAEAARLAESLPNCKTVDIGPGLHYLQEDNPDLIGSEIARWLPAL | bound |  | 
YL: DhaA.H272F based mutant Y273L (protein, UniProt P0A3G2 1-293, looked up, variant H272F Y273L) Haloalkane dehalogenase: MSEIGTGFPFDPHYVEVLGERMHYVDVGPRDGTPVLFLHGNPTSSYLWRNIIPHVAPSHRCIAPDLIGMGKSDKPDLDYFFDDHVRYLDAFIEALGLEEVVLVIHDWGSALGFHWAKRNPERVKGIACMEFIRPIPTWDEWPEFARETFQAFRTADVGRELIIDQNAFIEGALPKCVVRPLTEVEMDHYREPFLKPVDREPLWRFPNELPIAGEPANIVALVEAYMNWLHQSPVPKLLFWGTPGVLIPPAEAARLAESLPNCKTVDIGPGLFLLQEDNPDLIGSEIARWLPAL |  | significantly improved | 
YC: DhaA.H272F based mutant Y273C (protein, UniProt P0A3G2 1-293, looked up, variant H272F Y273C) Haloalkane dehalogenase: MSEIGTGFPFDPHYVEVLGERMHYVDVGPRDGTPVLFLHGNPTSSYLWRNIIPHVAPSHRCIAPDLIGMGKSDKPDLDYFFDDHVRYLDAFIEALGLEEVVLVIHDWGSALGFHWAKRNPERVKGIACMEFIRPIPTWDEWPEFARETFQAFRTADVGRELIIDQNAFIEGALPKCVVRPLTEVEMDHYREPFLKPVDREPLWRFPNELPIAGEPANIVALVEAYMNWLHQSPVPKLLFWGTPGVLIPPAEAARLAESLPNCKTVDIGPGLFCLQEDNPDLIGSEIARWLPAL |  | significantly improved | 
DhaA.H272F: Rhodococcus rhodochrous dehalogenase DhaA with His272 replaced by Phe (protein, UniProt P0A3G2 1-293, looked up, variant H272F) Haloalkane dehalogenase: MSEIGTGFPFDPHYVEVLGERMHYVDVGPRDGTPVLFLHGNPTSSYLWRNIIPHVAPSHRCIAPDLIGMGKSDKPDLDYFFDDHVRYLDAFIEALGLEEVVLVIHDWGSALGFHWAKRNPERVKGIACMEFIRPIPTWDEWPEFARETFQAFRTADVGRELIIDQNAFIEGALPKCVVRPLTEVEMDHYREPFLKPVDREPLWRFPNELPIAGEPANIVALVEAYMNWLHQSPVPKLLFWGTPGVLIPPAEAARLAESLPNCKTVDIGPGLFYLQEDNPDLIGSEIARWLPAL | bound |  | fold more protein required in the reaction to obtain measurable rates ([3]; relative to DhaA.H272F H11YL): ~420 fold
YM: DhaA.H272F based mutant Y273M (protein, UniProt P0A3G2 1-293, looked up, variant H272F Y273M) Haloalkane dehalogenase: MSEIGTGFPFDPHYVEVLGERMHYVDVGPRDGTPVLFLHGNPTSSYLWRNIIPHVAPSHRCIAPDLIGMGKSDKPDLDYFFDDHVRYLDAFIEALGLEEVVLVIHDWGSALGFHWAKRNPERVKGIACMEFIRPIPTWDEWPEFARETFQAFRTADVGRELIIDQNAFIEGALPKCVVRPLTEVEMDHYREPFLKPVDREPLWRFPNELPIAGEPANIVALVEAYMNWLHQSPVPKLLFWGTPGVLIPPAEAARLAESLPNCKTVDIGPGLFMLQEDNPDLIGSEIARWLPAL |  | significantly improved | 
DhaA.D106C:H272F: DhaA double mutant D106C and H272F (protein, UniProt P0A3G2 1-293, looked up, variant D106C H272F) Haloalkane dehalogenase: MSEIGTGFPFDPHYVEVLGERMHYVDVGPRDGTPVLFLHGNPTSSYLWRNIIPHVAPSHRCIAPDLIGMGKSDKPDLDYFFDDHVRYLDAFIEALGLEEVVLVIHCWGSALGFHWAKRNPERVKGIACMEFIRPIPTWDEWPEFARETFQAFRTADVGRELIIDQNAFIEGALPKCVVRPLTEVEMDHYREPFLKPVDREPLWRFPNELPIAGEPANIVALVEAYMNWLHQSPVPKLLFWGTPGVLIPPAEAARLAESLPNCKTVDIGPGLFYLQEDNPDLIGSEIARWLPAL | bound |  | 
H11YL: second generation DhaA.H272F mutant, H11 recombined with Y273L (SEQ ID NO:3) (protein, A synthetic mutant dehalogenase sequence) SEIGTGFPFDPHYVEVLGERMHYVDVGPRDGTPVLFLHGNPTSSYLWRNIIPHVAPSHRCIAPDLIGMGKSDKPDLDYFFDDHVRYLDAFIEALGLEEVVLVIHDWGSALGFHWAKRNPERVKGIACMEFIRPIPTWDEWPEFARETFQAFRTADVGRELIIDQNAFIEGALPMGVVRPLTEVEMDHYREPFLKPVDREPLWRFPNELPIAGEPANIVALVEAYMNWLHQSPVPKLLFWGTPGVLIPPAEAARLAESLPNCKTVDIGPGLFLLQEDNPDLIGSEIARWLPAL |  |  | carboxyfluorescein-C10H21NO2—Cl labeling rate slower/lower than carboxytetramethylrhodamine-C10H21NO2—Cl labeling rate [4]: 100 fold; TMR labeling [5]: labeled; second order rate constant with carboxytetramethylrhodamine-C10H21NO2—Cl [3]: 2.2e+06 M⁻¹ s⁻¹; second order rate constant for carboxytetramethylrhodamine-C10H21NO2—Cl labeling [6]: 500000 M⁻¹ s⁻¹; TMR labeling in CHO cells (CHO cells): labeled irrespective of rapamycin addition
